In doi:10.1101/2025.05.13.653810, “Spatial control of secretory vesicle targeting by the Ync13–Rga7–Rng10 complex during cytokinesis” (bioRxiv, 2025):

Target: T1, MBP-Ync13–6xHis (S. pombe, UniProt O13683 1-1237)
T1 construct: Ync13, the S. pombe homolog of Munc13/UNC-13; full-length cDNA between MBP-TEV-GGSGGS and the 6His tag of pET21a; MBP is followed by a TEV site and a GGSGGS linker; also called MBP-Ync13–6His; not shown: MBP, N-terminal, kept; His6, C-terminal, kept
T1 sequence (looked up): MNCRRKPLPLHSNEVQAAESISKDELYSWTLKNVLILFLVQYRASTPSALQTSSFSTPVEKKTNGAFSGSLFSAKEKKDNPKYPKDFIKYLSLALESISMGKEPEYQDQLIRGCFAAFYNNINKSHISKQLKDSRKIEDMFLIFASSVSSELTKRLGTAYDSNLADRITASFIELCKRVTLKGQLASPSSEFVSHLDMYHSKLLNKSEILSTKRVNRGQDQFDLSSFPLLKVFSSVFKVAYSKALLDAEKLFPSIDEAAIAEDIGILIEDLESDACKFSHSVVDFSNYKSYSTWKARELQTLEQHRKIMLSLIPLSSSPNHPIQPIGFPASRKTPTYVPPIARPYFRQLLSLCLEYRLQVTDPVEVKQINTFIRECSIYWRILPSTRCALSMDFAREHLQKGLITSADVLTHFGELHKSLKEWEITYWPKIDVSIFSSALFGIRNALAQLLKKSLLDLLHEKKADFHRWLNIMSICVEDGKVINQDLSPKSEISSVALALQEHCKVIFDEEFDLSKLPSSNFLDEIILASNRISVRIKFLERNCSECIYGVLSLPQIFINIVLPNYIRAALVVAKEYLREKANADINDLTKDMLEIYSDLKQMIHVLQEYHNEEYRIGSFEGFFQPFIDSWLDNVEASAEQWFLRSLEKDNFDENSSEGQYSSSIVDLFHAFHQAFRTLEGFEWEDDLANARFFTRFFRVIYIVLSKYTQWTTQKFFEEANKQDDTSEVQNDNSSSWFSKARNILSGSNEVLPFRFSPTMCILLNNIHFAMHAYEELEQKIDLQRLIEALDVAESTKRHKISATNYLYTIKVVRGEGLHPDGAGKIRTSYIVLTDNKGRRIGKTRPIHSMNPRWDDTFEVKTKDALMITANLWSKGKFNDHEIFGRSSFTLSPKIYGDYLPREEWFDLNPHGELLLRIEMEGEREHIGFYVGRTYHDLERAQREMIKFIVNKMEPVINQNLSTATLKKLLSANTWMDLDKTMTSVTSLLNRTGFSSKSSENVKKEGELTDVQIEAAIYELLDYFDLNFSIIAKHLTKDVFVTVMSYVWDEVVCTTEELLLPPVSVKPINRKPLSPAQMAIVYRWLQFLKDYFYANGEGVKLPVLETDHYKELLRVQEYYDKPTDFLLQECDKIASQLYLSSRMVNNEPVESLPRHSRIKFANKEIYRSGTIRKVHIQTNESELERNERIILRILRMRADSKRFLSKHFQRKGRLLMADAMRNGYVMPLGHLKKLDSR
Experiment: supernatant depletion assay; Rga7–6xHis at 4 μM titrated with MBP-Ync13–6xHis immobilized on Cobalt beads; beads pelleted at 16,000 g, supernatants on Coomassie-stained SDS-PAGE, bound fraction fitted
Conditions: both partners purified

B1: Rga7–6xHis (natural protein, S. pombe, UniProt O94466 1-695, looked up)
chain: MLSAPSSSTTPASPPTSPPNTTSSDDFAVLKEPKVEAILNSELGLAILNDRIKDYLLTCKELAGFFKKRSILEEESGKNLQKLAKSYLETFQSKHHSPQSFSASVITSMEIHEQLANHSLTLQKTLSAFSDQVIEFHKNAERKRKSIKEYAKKQENAYLEAVMQMDKSKSRFKGAETEYNRALDNKNTGDSQKKVGFFKPKSNAQLTKLEDEARLKAENAESDMHSKIENAQNVQKQLLCIHRPNYIKQFFSLQREIESSLIANYLRYTKLCESNTLLNGLTIRPQKPTPTNCGLQHALDNINANTDFVQYVLHASIKHEDNKNPTDASKTKIIQPPSSYGTGSSAGKTNPPVNPTIKVTAAIPSPLQNTNPAPSTFPNPSVASPAFPNSSTSNPSTAPASASPLASTLKPSTANDTNGSSSSSSSNPRTSSPLASNAENKPPVAQQSPPVLLPTLPPIQTTTIQTSREVAPPPSSINSNRAASPFRPTSVSPQPSSPTKSLLFGARLDAIILREHSNIPNIVMQCTSQVENFGLNLQGIYRVPSSSARVNMLRSQFENNPLLQLHTPEDYENDVHAVADLLKIFFRELREPLIPDNHQRDFIDAGNVEDESRRRDAVHRAINDLPDANYSTIRHLTIHLAKIKENSDVNKMSTNNLAIIWGPTIIKQATIPEISSFSRTIEILIDYCFTIFDYD
notes: Rga7, F-BAR protein and Rho2 GAP of S. pombe; full length, cloned into pET21a between the T7 tag and the 6His tag; also called Rga7–6His; not shown: His6, C-terminal, kept
Kd: 10 µM
